From a protein production outcome set (Wang et al. 2014)

Assay: label from the status in PepcDB records
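Further: failed if final PepcDB status was selected cloned or expressed and not failed if soluble or beyond.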

| Sequence | protein production |
| --- | --- |
| MFLNRKVELSLLENLHAEGKPKLILLYGKRRVGKTELLNEFARRHRALYLVARQEAYEGQLKKMSSEIAEFFDDDVLRHSPFQNYDALFIYLAQKETPVLFDEFPYLVEANRDLPSILQEYWDRYFSKKKTFLVLCGSSIAMMESLLGYKSPLYGRRTEQILLEPLKFREACEFFPQLEQEDKVLAYAVLGGTPAYLLEFDYGKPLLENIRDRILQKNTFLYQDTMFVLQQELTEPRVYYSIINSIAKGNTRLGEIMNDTGLEKSKITKYLSVLKDLHIIERRVPVTEKSPESSKKGIYLLKDNYFKFWFRFVFENAEYIEQGRQEKLIGDKISPVLNNFAGFAYEEIVLEYLKSSPGFPDYIFGRWWDKEEEIDVVGLDSSQNRIIFGEVKWKALTEKEARQTLNQLVEKSVEVKWGENLKSGEIQEGPEKKYMLVGKKVGGKKRLLGDGYLVLELDDLVEN | failed |
| AGGRERRVAVLFCDLRDFTRIAEHRLPYDTVFLLNRYFEVVGEAVEGSGGVVDKFIGDGALAIFGLKTPLPEACRQALSAAARLSQGIRALNQTFEGELEQPLRLAIGLHAGPAIIGEMGYGQATSLTVVGDTINTASRLEGLAKEHDVELAVSAELVERAGLSFEGHRRLEIGLRGRKATLETWIIGDAAQLSLSLP | failed |
| MEELFCIGCGIQIQTEDKEKAGFTPAAALKKGMETGELYCQRCFRLRHYNEITDVHITDDEFLRLLHEVGDSDALVVNVIDIFDFNGSIIPGLSRFISGNDVLLVGNKKDILPKSVKDGKVTQWLTERAHEEGLRPLDVMLTSAQNKYAIKDLIGRINELRNGRDVYVVGVTNVGKSTLINAIIQEITGNKDVITTSRFPGTTLDKIEIPLDDGTFIFDTPGIIHRHQMAHYLSPKELKIVSPKKEIKPKTYQLNPEQTLFLGGLARFDFINGERQGFTAFFDNQLELHRTKLAGADAFYDKHVGTLLTPPDKKELTAFPKLVRHEFTIDQKMDIVFSGLGWIRVNGQKDSKAIVAAWAPEGVAVIVRKAIILEHHHHHH | not failed |
| EQAEAQLAELDLLASMFPGENELIVNDQLAVAELKDCIEKKTMEGRSSKVYFTINMNLDVSDEKMAMFSLACILPFKYPAVLPEITVRSVLLSRSQQTQLNTDLTAFLQKHCHGDVCILNATEWVREHASGYVSRDTSS | not failed |
| MRLSPAPLKLSRTPALLALALPLAAALAFSDETLDKVPKSEGYCSRILRAQGTRREGYTEFSLRVEGDPDFYKPGTSYRVTLSAAPPSYFRGFTLIALRENREGDKEEDHAGTFQIIDEEETQFMSNCPVAVTESTPRRRTRIQVFWIAPPAGTGCVILKASIVQKRIIYFQDEGSLTKKLCEQDSTFDGVTDKPILDCCACGTAKYRLTFYGNWSEKTHPKDYPRRANHWSAIIGGSHSKNYVLWEYGGYASEGVKQVAELGSPVKMEEEIRQQSDEVLTVIKAKAQWPAWQPLNVRAAPSAEFSVDRTRHLMSFLTMMGPSPDWNVGLSAEDLCTKECGWVQKVVQDLIPWDAGTDSGVTYESPNKPTIPQEKIRPLTSLDHPQSPFYDPEGGSITQVARVVIERIARKGEQCNIVPDNVDDIVADLAPEEKDEDDTPETCIYSNWSPWSACSSSTCDKGKRMRQRMLKAQLDLSVPCPDTQDFQPCMGPGCSDEDGSTCTMSEWITWSPCSISCGMGMRSRERYVKQFPEDGSVCTLPTEETEKCTVNEECSPSSCLMTEWGEWDECSATCGMGMKKRHRMIKMNPADGSMCKAETSQAEKCMMPECHTIPCLLSPWSEWSDCSVTCGKGMRTRQRMLKSLAELGDCNEDLEQVEKCMLPECPIDCELTEWSQWSECNKSCGKGHVIRTRMIQMEPQFGGAPCPETVQRKKCRIRKCLRNPSIQKLRWREARESRRSEQLKEESEGEQFPGCRMRPWTAWSECTKLCGGGIQERYMTVKKRFKSSQFTSCKDKKEIRACNVHPC | failed |
| YTFIGNSPVPKSYSLSEMRDAFIKFFEKRGHKFLKPYPVVPRWREDVLLVNASIYDFQPHVTSGIVRPPGNPIVMSQPSIRMNDVDLVGITGRHLTSFEMLCHDSFNTKDKTVYWKEETVHYCYDFLTEGLGIDGKLISFKEKPWSGGGNAGNALEVFVRGLEVATLVFMDMKEDPNGPYEIDGIRYSKMDMRIVDTGYGLERLTWLSQGTPTVYQAIYPDIIQHVMKNSSVSDIDEEFLSEVVKASVMKEP | failed |
| MIRLATKNDLLSITQLVKEAKQIMEEFNNNQWDDEYPAKEHFEEDIENKTLYVLDVDHTIYGFIVIDQNQSEWYDDIDWPVNRNGAYVIHRLAGSKQYKGAATELFQFAIDLANEHDIHVILTDTFALNKPAQGLFEKFGFTKVDEIEIDYHPFDRGAPFYAYYKNI | failed |
| MIKVKSPGRVNLIGEHTDYTYGYVMPMAINLYTKIEAEKHGEVILYSEHFGEERKFSLNDLRKENSWIDYVKGIFWVLKESDYEVGGIKGRVSGNLPLGAGLSSSASFEVGILETLDKLYNLKLDSLSKVLLAKKAENEFVGVPCGILDQFAVVFGREGNVIFLDTHTLDYEYIPFPKDVSILVFYTGVRRELASSEYAERKHIAEESLKILGKGSSKEVREGELSKLPPLHRKFFGYIVRENARVLEVRDALKEGNVEEVGKILTTAHWDLAKNYEVSCKELDFFVERALKLGAYGARLTGAGFGGSAIALVDKEDAETIGEEILREYLKRFPWKARHFIVEPSDGVGI | not failed |
| MGKDLAECYLGLGSTFRTLGEYRKAEAVLANGVKQFPNHQALRVFYAMVLYNLGRYEQGVELLLKIIAETSDDETIQSYKQAILFYADKLLEHHHHHH | failed |
| MGGGGGSRGPGHAARIAAPPFRPPSPCPAMLAAGEMCGAAHCPARPAPVSCRDRPRRFSSPSPLPGSLFFSPVAAGRRVSRPIFLFCSFGGFCMQRFLTLALLGAAALGGALAQNAAPAPAPAPVAQPAPAPQTAPATPAAQPAAPAVRPPAANYVVVGNLYYDQGKFDQAYVAFRTAAELDPRNTQALLGLGRSQVRLRLYAPAVDTLRRLTTVDPQNVSGYVALSQAYQQQYMGSGDRASVTGNLDAALAVLQQAEAAVTALPEADRALAQSKLLNERGSVYRLQGKPTQAIEAFRQASALNPENSLLLFNLGDMYAASGQLPLAVSALQQAVILDPRDPYNRAYYAKLLALSGNLTSARVEAAQASRLVTGNAYATGQYGVVSYLAGDRTTARTQLAQAVRLDPLRYPEFYYYLGRLDLDGSDLKSARDNLTRAVALNSTSAEYAYYLGLAYERGVPGVAADNVRARENYDKALKLAPGYKQAQEGADRLKPPSSGN | failed |
| MIVIPMAGMSSRFFKAGYTQPKYMLEAHGQTLFEHSVNSFAAYFASTPFLFIVRNVYDTAVFVREKATQLGIKQFYIAELHTETRGQAETVTLGLEELAKQGVDYQGSITVFNIDTFRPNFVFPDISQHSDGYLEVFQGGGDNWSFAKPEHAGSTKVIQTAEKNPISDLCSTGLYHFNRKEDYLEAYREYVARPSQEWERGELYIAPLYNLLIQKGLNIHYHLIARHEVIFCGVPDEYTDFLRQPQPLEHHHHHH | not failed |
| MYVREVKDGKVVVAKARTSACGSCPAKNICLSDNEIKLEIDWCGEDLKPGDEVVVDIPEYDPLKVSTLVYFLPLVIFAVTVITGYLFRLKDWVTFVLALGSVFAYYSLFRFRRKDRKPPRILRKVS | failed |
| SGRPFVEMYSEIPEIIHMTEGRELVIPCRVTSPNITVTLKKFPLDTLIPDGKRIIWDSRKGFIISNATYKEIGLLTCEATVNGHLYKTNYLTHRQTNTIIDVQISTPRPVKLLRGHTLVLNCTATTPLNTRVQMTWSYPDEKNKRASVRRRIDQSNSHANIFYSVLTIDKMQNKDKGLYTCRVRSGPSFKSVNTSVHIYDKAFITVKHR | not failed |
| MILPTKAMATQELTVKRKLSGNTLQVQASSPVALGVRIPTVALHMMELFDTTVEQLYSIFTVKELTNKKIIMKWRCGNWPEEHYAMVALNFVPTLGQTELQLKEFLSICKEENMKFCWQKQHFEEIKGSLQLTPLNG | failed |
| MKDPLLNSLIYVSRYYGLANSPEALVNGLPLSDGKLTPFLLPRAAERAGLVAKENRAELEKISSLILPAILVLKGGDSCVLNSINMETREAEVTTLESGMVPISIPLEDLLEQYTGRYFLVKKQFR | not failed |
| MNQPDIKGSCASEFTKVRDAFERNFVLRNEVGAAVAVWVDGDLVVNLWGGSADAGGTRPWQHDTLATVLSGTKALTATCVHQLVDRGELDLHAPVARYWPEFGQAGKQAITLAMVMSHRSGAIGPRGRLGWEQVADWDFVCEQLAAAEPWWQPGAAQGYHMTTFGFILGEVFRRVTGRTVGQYLRTEIAEPLGADVHIGLHPGEQLRCADLVDKPHIRQLLADVQAPGYPTSLNEHPKAALSVSMGFAPDDELGSNDLQLWRQIEFPGTNGQVSALGLATFYNGLAQEKLLSREHMELVRVSQGGFDTDLVLGPRVADHGWGLGYMLNQRGVNGPNPRIFGHGGLGGSFGFVDLEHRIGYAYVMNRFDATKANADPRSVVLSNEVYAALGVNRS | failed |
| MATANEHLVAWLRDAHAMEEQAITMLTSQSSRLENYPELKTRIDRHLQETKDQAAMLERCLERLDGGTSSIKDISGKIVAFGQGLSGLFVSDEVVKGTLASYTFEHMEIASYRILIAAAEQAGDQETKRVCESILQQEIAMAEWLAQNAGEITRKFLERDQRDVTAKH | not failed |
| MKVNETGVEELNPYPDRPGERDCQFYLRTGLCGYGSSCRYNHPTHLPQDVAYYKEELPERIGQPDCEYFLKTGACKYGPTCKYHHPKDRNGAQPVMFNVIGLPMRLGEKPCPYYLRTGTCRFGVACKFHHPQPDNGHSTAYGMSSFPAADLRYASGLTMMSTYGTLPRPQVPQSYVPILVSPSQGFLPPQGWAPYMAASNSMYNVKNQPYYSGSSASMAMAVALNRGLSESSDQPECRFFMNTGTCKYGDDCKYSHPGVRISQPPPSLINPFVLPARPGQPACGNFRSYGFCKFGPNCKFDHPMLPYPGLTMATSLPTPFASPVTTHQRISPTPNRSDSKSLSNGKPDVKKESSETEKPDNGEVQDLSEDASSP | failed |
| MQPELTKTPANFPLSPLGAVVILGDIPNPELLAIPLAPTPSTMFGPRGACLVAETGALWVSDTGHHRLLGWRKLPTTDSQPADWVIGQPDFYHEGQNAKGTPGRTTVSVPTGICVCGGGLAIADAWNHRVLIWHKIPEDSNVPADLVLGQRNFSENEPNRGKQSPDANTMHWPYGVAYHQGKLFVADTGNRRLLIWQQLPTENGQPADIVLGQPDMISRNENGGGSPTAGSMRWCHDIAFWDDNLVVTDAGNNRVMIWQGIPTENNAPCAVVLGQKSFDLVEMNQGVYFPSAGSLSMPYGVGATEDWLMVADTANSRLLGWRKRESILLLQGAIADGIIGQNSFQSKSENRHFGLPTRDSLNWCYGVKVCGSTAVISDSGNNRVLLWRFLLEHHHHHH | failed |
| MRWILFILFCLLGAPAHAVSIPGVTTTTTTDSTTEPAPEPDIEQKKAAYGALADVLDNDTSRKELIDQLRTVAATPPAEPVPKIVPPTLVEEQTVLQKVTEVSRHYGEALSARFGQLYRNITGSPHKPFNPQTFSNALTHFSMLAVLVFGFYWLIRLCALPLYRKMGQWARQKNRERSNWLQLPAMIIGAFIIDLLLLALTLFVGQVLSDNLNAGSRTIAFQQSLFLNAFALIEFFKAVLRLIFCPNVAELRPFTIQDESARYWSRRLSWLSSLIGYGLIVAVPIISNQVNVQIGALANVIIMLCMTVWALYLIFRNKKEITQHLLNFAEHSLAFFSLFIRAFALVWHWLASAYFIVLFFFSLFDPGNSLKFMMGATVRSLAIIGIAAFVSGMFSRWLAKTITLSPHTQRNYPELQKRLNGWLSAALKTARILTVCVAVMLLLSAWGLFDFWNWLQNGAGQKTVDILIRIALILFFSAVGWTVLASLIENRLASDIHGRPLPSARTRTLLTLFRNALAVIISTITIMIVLSEIGVNIAPLLAGAGALGLAISFGSQTLVKDIITGVFIQFENGMNTGDLVTIGPLTGTVERMSIRSVGVRQDTGAYHIIPWSSITTFANFVRGIGSVVANYDVDRHEDADKANQALKDAVAELMENEEIRGLIIGEPNFAGIVGLSNTAFTLRVSFTTLPLKQWTVRFALDSQVKKHFDLAGVRAPVQTYQVLPAPGATPAEPLPPGEPTL | failed |
